We go through 23 sequences from the DeepSol protein solubility set.

The nature of this series: soluble on expression in E. coli; label from the status in PepcDB or PDB records.
As for “MAHHHHHHMEDMYEMQHSNLRCLPENYNLRYYYYHLLSWPQLLYVQQDYNRNTVGYVLGKMDDEEVPDKKHGHITSLAVLRSHRKLGIASRVMRATMKEMDAEYGAHYCSLHVRKTNDAALHLYQDTLGFRCVGVEEKYYMDEEDAYHMKSFFHQANPGSYVDDHKRLIRKTVPGELEGGPAAAGASSPAVGGRGGDKNGKRGNDKAAKEISAKEREAAMAELLGLEVGGKGRAAGGGAGGKGKSGNSSGGGGKRGSGRQK”, the “soluble on expression in E. coli” value is listed as “soluble”.

Take “MPKLGIKPLRRQQLIDATLRSISERGLQNTTIVSISKIAGMSSGIISHYFGGKKELIEETVSYLLDQLQQSLLERITEENPPAHIRLNLIVEANFTEFQRSLLATKTWLSFWAMSMHDPAMARLQSINSNRLHSNLLFSFKELLDPESAANAAKQTAAMIDGFWLRSALSENSEQEFIAAELLCKKFINDVIKQEISNASN”: the “soluble on expression in E. coli” value is “not soluble”.

In the case of “EIDGTTYVDGGLFKDLPASVIREDCRYLIGVHLNPKEPSDYKKSLFGIAERCFGYIFRANSLPDRKLCDLLIESREIIKFKPFHVEPAEEIAAFGYKMAKQVLKTTSITRNP”, the “soluble on expression in E. coli” value is “not soluble”.

In the case of “MTKYIFVTGGVVSSLGKGITAASLGRLLKNRGLNVTIQKFDPYINVDPGTMSPYQHGEVFVTDDGAETDLDLGHYERFIDINLNKYSNVTTGKIYSAVIRKERRGDYLGGTVQVIPHITNEIKERVFRAGRETNADVVITEIGGTVGDIESLPFLEAIRQIKSDVGRENVMYIHCTLVPYIKAAGEMKTKPTQHSVKELRSLGIQPNVIVVRTEMPMPQEMKEKIALFCDIDPKAVIEARDADTLYAVPLMLQEQKLDQIVCEHLRLNCREADMTEWKALVEKVRNLSKTTKIALVGKYVELPDAYISVVEALRHAGYAFDTDIDIQWINAEHVTRDNVADLLKDADGILVPGGFGDRGVEGKIEAIRYAREQRVPFLGICLGMQLASIEFARHVVGLSGAHSSEFDPNTPHPIIDLLPEQKDVEDLGGTLRLGLYPCKLQEGTLAYAAYGDEVIYERHRHRYEFNNQYRSIMEEHGFVFSGTSPDGRLVEVIELKDHPWFVAAQFHPEFTSRPTRPQPLFREFVRASLKE”, the “soluble on expression in E. coli” value is “not soluble”.

With “METTLVIIRGNSGSGKTTLAQALQRRVGHHTLLVSQDVVRRDMLMSHDYPGNISIGLIEQIVCYGLGRVPVVIVEGILARDRYGKMLARLSQSFPRVLTYYFEVSFATTLARHQKRHRDFGVEDMRRWWLPHDTLGVANEVLIGEQQDLTTEVQQIMTTIHDCDLEHHHHHH”, the “soluble on expression in E. coli” value was “not soluble”.

As for “MFQASMRSPNMEPFKQQKVEDFYDIGEELGSGQFAIVKKCREKSTGLEYAAKFIKKRQSRASRRGVSREEIEREVSILRQVLHHNVITLHDVYENRTDVVLILELVSGGELFDFLAQKESLSEEEATSFIKQILDGVNYLHTKKIAHFDLKPENIMLLDKNIPIPHIKLIDFGLAHEIEDGVEFKNIFGTPEFVAPEIVNYEPLGLEADMWSIGVITYILLSGASPFLGDTKQETLANITAVSYDFDEEFFSQTSELAKDFIRKLLVKETRKRLTIQEALRHPWITPVDNQQAMVRRESVVNLENFRKQYVRRRWKLSFSIVSLCNHLTRSLMKKVHLRPDEDLRNCESDTEEDIARRKALHPRRRSSTS”, the “soluble on expression in E. coli” value is reported as “soluble”.

Turning to “MGSDKIHHHHHHMSNQYHNFNSQIESHILFYGHQKCKPDEYFDGTNLRKNDILYYVLDGKGTFNSSGHHVAKLAKGDLFLVPRSRTCYFEADHDNPWEYFWIGLSGAGTNEMIKASNLPNKNFLRQIQKTEFFETLKELYSTLNEDSSLLNNVKIASLTYQLFYHLIDEFPNHPSIRKTPKIDQYQIAIDYLNKNYTDPTCNIVELCNRLGVSRSFLYSLFRKNTKISPQKYLMQLRMEAAKKELLNTTHNLKEIARKVGYGDEFTFSKAFKRYSGVSPNVFRGK”, the “soluble on expression in E. coli” value was “not soluble”.

Consider “MAAATGGLTPEQIIAVDGAHLWHPYSSIGREAVSPVVAVAAHGAWLTLIRDGQPIEVLDAMSSWWTAIHGHGHPALDQALTTQLRVMNHVMFGGLTHEPAARLAKLLVDITPAGLDTVFFSDSGSVSVEVAAKMALQYWRGRGLPGKRRLMTWRGGYHGDTFLAMSICDPHGGMHSLWTDVLAAQVFAPQVPRDYDPAYSAAFEAQLAQHAGELAAVVVEPVVQGAGGMRFHDPRYLHDLRDICRRYEVLLIFDEIATGFGRTGALFAADHAGVSPDIMCVGKALTGGYLSLAATLCTADVAHTISAGAAGALMRGPTFMANPLACAVSVASVELLLGQDWRTRITELAAGLTAGLDTARALPAVTDVRVCGAIGVIECDRPVDLAVATPAALDRGVWLRPFRNLVYAMPPYICTPAEITQITSAMVEVARLVGSLP”, for which the “soluble on expression in E. coli” value is on record as “soluble”.

Turning to “AIFELMNEAYAPLYGFSALSQGQINQYIKMYLPIVDLRMVTLVTDAEDKLVAVGISMPSLSEALQKAKGRLLPMGWYHLLKVLFLHKYPPMLDLLLVAVKPEYQNKGVNALLFSDLIPVYQQLGFKYA”, the “soluble on expression in E. coli” value was “not soluble”.

Regarding “MGHHHHHHSHMSIRNWVTRTPSSSPPITPPASETKIMSPRKALTPVSQKSSQAEACSESRNRVKRRLDSSCLESVKQKCVKSCNCVTELDGQVENLHLDLCCLAGNQEDLSKDSLGPTKSSKIEGAGTSISEPPSPISPYASESCGTLPLPLRPCGEGSEMVGKENSSPENKNWLLAMAAKRKAENPSPRSPSSQTPNSRRQSGKTLPSPVTITPSSMRKICTYFHRKSQEDFCGPEHSTEL”, the “soluble on expression in E. coli” value is listed as “not soluble”.

In the case of “MSLKVIWTVTPVGYQRIAKRCPSCSVKRDFTPSGAFRVNSQKKVLDVWSIYKCTHCDYTWNISLFSRLPVSKINRDLYCRLMANDAATVQYFAYDNAILKRNNAELSGQPDFHIQERWLVSIASHKQVSVSVRISRSFQVSLLSILKKQLLLSAAEIKRRIETGQISGVTMKMLKSRKLKNAKYDLQLSVETLYDRRRIVLTCREGHHHHHH”, the “soluble on expression in E. coli” value is “soluble”.

Turning to “MARKVIDVRIVNAATAEQESFIKELSMELIHDVFPLYFSELDIQRLKKKGVLSLNNHYYQGTLKEAFQIMACLQMIHIILTKPSPHSDLSDQAIFEKNSKMLNDFGIYFPFAFSDFQKKTNKAFFGQRRLILEHHHHHH”, the “soluble on expression in E. coli” value was “not soluble”.

Consider “MRLVLSSLIVIAGLLSSQATAATAPEQTASADIRDSGFVYCVSGQVNTFNPQKASSGLIVDTLAAQLYDRLLDVDPYTYRLVPELAESWEVLDNGATYRFHLRRDVSFQKTAWFTPTRKLNADDVVFTFQRIFDRRHPWHNINGSSFPYFDSLQFADNVKSVRKLDNNTVEFRLTQPDASFLWHLATHYASVMSAEYAAQLSRKDRQELLDRQPVGTGPFQLSEYRAGQFIRLQRHDGFWRGKPLMPQVVVDLGSGGTGRLSKLLTGECDVLAWPAASQLTILRDDPRLRLTLRPGMNIAYLAFNTDKPPLNNPAVRHALALSINNQRLMQSIYYGTAETAASILPRASWAYDNDAKITEYNPQKSREQLKALGIENLTLHLWVPTSSQAWNPSPLKTAELIQADMAQVGVKVVIVPVEGRFQEARLMDMNHDLTLSGWATDSNDPDSFFRPLLSCAAINSQTNFAHWCNPEFDSVLRKALSSQQLASRIEAYEEAQNILEKELPILPLASSLRLQAYRYDIKGLVLSPFGNASFAGVSREKHEEVKKP”, for which the “soluble on expression in E. coli” value is “not soluble”.

Regarding “MRVDIVPVGDVPAHVKRQASSSLRSVYDCEVVVASEQDVPTAAYDEARSQYRAAEFIDTATRATSGDKTIAITPHDLFYRRRNYVFGLAYLDGRGCVVSTYRLQTSSDGGFSNRSSSDVFDDRVRKEVVHELGHTLGLEHCDNNRCAMNFSPTVREVDRKEENLCGSCQRTVFLEHHHHHH”, the “soluble on expression in E. coli” value was “not soluble”.

As to “MNNKLIYRSVRFATHNSQLLLPPLVLYRRILRQHKLLPGPQREMGDQYVRNEFKLHKDIDNPLHIVGFLASWQDYLHMISNGKWKDATLSSETLEKLSPEQTVQLYELMKETQKLHQDNEIESSKDVKRNNKD”, the “soluble on expression in E. coli” value was “not soluble”.

For the sequence “MCSHYQALKDQERMRKYFAAHPSAEVPADMWPRYMGAFIRRPLEWDSGDEAVPEREAATGRWGMIPPGTRPEKLAEASKKNTSNARSETAHQLWTFRNAWAKAQHCIIPADAIYEPDWRSGKAVPTRFTRADGAPLGIAGLWDRYRNAAGEWIDSYTMLTINADDDPLFRDYHQAGKEKRMVVILPDGAYGDWLTAPATDTRDFLLPYPADRLVAAAVKLEHHHHHH”, the “soluble on expression in E. coli” value is reported as “soluble”.

Turning to “MGSDKIHHHHHHADDSVKIGFITDMSGLYADIDGQGGLEAIRMAVADFGGKVNGKPITVVYADHQNKADIAASRAREWFDRDGVDMLIGGTNSATGLSMNTVAGEKKKVYISIGAGADTLTNEQCTPYTVHYAYDTTALAKGTGSAVTKQGGKTWYFLTADYAFGKALEKNTADVVKANGGQVLGAVRHPLSASDFSSFLLQAQASKAQILGLANAGGDTINSIKAAKEFGITKTMKLAALLVFIDDIHSLGLETTQGLVLTDSWYWNKDATTRKWAERYFDKMKKMPSSLQAADYSATMTYLNAVKAVGSTDSDKVMAQLKKTKIDDFYAKGYIRQDGSMIHDMYLMQVKTPAESREPWDYYKITATIPGEQAFTTKAETRCALWK”, the “soluble on expression in E. coli” value is “not soluble”.

With “MILMAIGLLMGSYYAVEWYKGKSSAQELTNEEIKSFKNIQHNQLPYETLVTSQVPSSQTEHKEGEKVAMLNIPKLKKKFSIYWGADDATLKKGVGMFVSDVTTTPSGGGHTVLSGHRDTVFTDLGQLKEKDTLVLEYDNKTYTYEIQKIWITHADDRTVIIKKEEPILTLTTCYPFDYIGDAPDRYIIEAKLTGSYSK”, the “soluble on expression in E. coli” value is recorded as “not soluble”.

As to “MSLSIPLILASQSRPRRDVLFSAGICPTIRVSHVDEPAALEREAAALGVTVNDLSVEQRVMILATAKAEAVHQAYRNIADTAAHARGERVVGFPLRAADDRDASSAGTAARTDSAQSADETKTRDFSGIAIPTVAEPIADFVDGRPSLTRSKAGPLILGCDSMFLLDGECYGKPHSEEVARERLRAMRGATGELWTGHCLIDFASGRMVRGASKATLHFCEYSDLDIERYIATGEPLEVAGSFTLEGFGGAFIDSIEGDPHGIIGLSLPLARRLAAQLGVEWTDLWNVTRSDLAPDAEYDAKTGAAKPLPPKENVHQPGDGWVDCACGRKHWGTNGASGVLLARRSETTGEVTHVVMQHRAVWSAEGGTWGIPGGATADGESPIEGALRESYEEANITPEDIDVVGSYCEDHGPWSYTTVFAFEKPGHRIEPKANDDESMEIEWVPVDDVPNRKLLTAMRTDWPNFAARLRALAAVREGHHHHHH”, the “soluble on expression in E. coli” value is on record as “soluble”.

“MLSPITLEALHILDAIERRGSFAAAANELNRAPSSLSYQIQKLEQDLDLMIFDRSGHRANFTEAGKLILERGRAILAATEKLVNDATLLANGWELDITIALDGIVPAANLFPMVEALGNISKTRVRIQDEILAGCWEALATGRADLLICPRIEALPQDVKAETIGTMKMIWVAAPTHYVHRRSGEFNEEAREKYRAIAIADTAREQPAMSVNILQRQPRLTVSNLDAKCKALVAGLGIGTLPLQVAQPYIDKGELKAIHGSEDLEMDIVLAWRRNQMGEAKSWCIQYLKKNWRWE”: the “soluble on expression in E. coli” value was “not soluble”.

In the case of “MTMIMRSIIDSLEALFSSFFSSIAPNLYEVLNFHCKKHTGMNFAEATLKNPKLTYEFLVKFFDSEMAVDVLDYLLSNFLKKYSIRAYGILKSFKSGDNKKLIEVAKLYSKVMQNGGGKDRD”, the “soluble on expression in E. coli” value is “not soluble”.

As to “MIFVGNFIQDEKGKGLRIGFVHYRPFDETVGMNLPEETIRQMGALVDEIPEPEQREGKIPVMYYNPETNTVYYEYEDKPLSLEEEIKYLKELNAELIYQLMMKGAL”, the “soluble on expression in E. coli” value is “not soluble”.

Consider “LEQLSMNLLDGALRIEHFALPQTKVAYLHLSQINFEQILALLKYQQIELKGRANATFPFWIEGKPCYVCNGSMAQAVSSRLKIAPELMQAISQSNGYSERLLAYLLHDTRITDLTSKVNINSEGEMALQAKLNMQLNQQAQTKINFNYHHQENVFKLWRTLNAGTYVEQNFENSIYQKLDRTNE”, for which the “soluble on expression in E. coli” value is recorded as “not soluble”.
